Measured values: PMC5746249, “Novel linear motif filtering protocol reveals the role of the LC8 dynein light chain in the Hippo pathway” (PLoS Computational Biology, 2017)

B1: AMOT LC8 binding motif peptide, start 860 (peptide)
chain: TGSRDCSTQTE
modifications: core 860-867 printed; 11-mer assumed to add 3 N-terminal residues, as in the S1 Table motif format; termini chemistry not stated
B2: WWC1 (KIBRA) LC8 binding motif peptide, start 278 (peptide)
chain: KQYLDVSSQTD
modifications: core 278-285 printed; S1 Table prints the 11-mer KQYLDVSSQTD starting at 275; termini chemistry not stated
B3: WWC3 LC8 binding motif peptide, start 867 (peptide)
chain: PLKVDKETNTE
modifications: printed start 867 appears to be in older 1092-aa numbering (current entry +124, so core 991-998); 11-mer assumed to add 3 N-terminal residues, as in the S1 Table motif format
B4: WWC2 LC8 binding motif peptide, start 282 (peptide)
chain: RQTLDAGSQTS
modifications: core 282-289 printed; 11-mer assumed to add 3 N-terminal residues, as in the S1 Table motif format; termini chemistry not stated
B5: AMOTL2 LC8 binding motif peptide, start 724 (peptide)
chain: HGSRDGSTQTE
modifications: core 724-731 printed; 11-mer assumed to add 3 N-terminal residues, as in the S1 Table motif format; termini chemistry not stated
B6: WWC2 LC8 binding motif peptide, start 962 (peptide)
chain: PTLVDKETNTD
modifications: core 962-969 printed; 11-mer assumed to add 3 N-terminal residues, as in the S1 Table motif format; termini chemistry not stated
B7: WWC3 LC8 binding motif peptide, start 208 (peptide)
chain: QQFCDAGSQTD
modifications: printed start 208 appears to be in older 1092-aa numbering (current entry +124, so core 332-339); 11-mer assumed to add 3 N-terminal residues, as in the S1 Table motif format
B8: WWC1 (KIBRA) LC8 binding motif peptide, start 887 (peptide)
chain: ALKVDKETNTE
modifications: core 887-894 printed; 11-mer assumed to add 3 N-terminal residues, as in the S1 Table motif format; termini chemistry not stated
B9: AMOTL1 LC8 binding motif peptide, start 873 (peptide)
chain: TGSKDSSTQTD
modifications: core 873-880 printed; 11-mer assumed to add 3 N-terminal residues, as in the S1 Table motif format; termini chemistry not stated

The binders below were run against LC8 dynein light chain (DYNLL2), full-length, His6-tagged (human (by the printed accession Q96FJ2), UniProt Q96FJ2 1-89) (assay: SPR; His6-LC8 immobilised on Ni2+-NTA HTG sensor chip (ProteOn XPR36) at three densities (1200, 900, 600 RU); peptides injected at five concentrations, 60 ul/min; 20 mM Hepes, 150 mM NaCl, 0.05% Tween-20, 0.1 mM TCEP, 50 uM EDTA, pH 7.5; 1:1 Langmuir global fit; apparent Kd, mean of kinetic and equilibrium analysis). Conditions: both partners purified.
LC8 dynein light chain (DYNLL2), full-length, His6-tagged, sequence (Q96FJ2 whole entry, one chain of several): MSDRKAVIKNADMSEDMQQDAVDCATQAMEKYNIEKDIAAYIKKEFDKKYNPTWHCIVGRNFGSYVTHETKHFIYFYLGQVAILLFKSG
Binder B1 has a Kd of 1.2 µM.
B2 gave a Kd of 0.45 µM.
B3 gave a Kd of 3.5 µM.
In the case of B4, the Kd is reported as 32.7 µM.
B5 showed a Kd of 1.98 µM.
For B6, the Kd was 17.6 µM.
B7 showed a Kd of 5.34 µM.
With B8 the Kd was 4 µM.
For B9, the Kd was 1.55 µM.
